From paper PMC9125324, “MdJa2 Participates in the Brassinosteroid Signaling Pathway to Regulate the Synthesis of Anthocyanin and Proanthocyanidin in Red-Fleshed Apple” come the findings set out here.

The target of series [1] is T1, MdJa2-His (Malus domestica? (red-fleshed apple), UniProt Q208U7 1-224). Put plainly: competition; 50-200x excess vs labeled N5; EMSA (LightShift kit): 2.5% glycerol, 5 mM MgCl2, 10 mM EDTA, 50 mM KCl; room temperature, 30 min; pH not stated. Conditions: protein: recombinant; tags: His (pET32a); chain copies: 2; blunt. For orientation: Mobility shift assays separate free from complexed probe on a gel.
T1 sequence (Q208U7 entry or part of it): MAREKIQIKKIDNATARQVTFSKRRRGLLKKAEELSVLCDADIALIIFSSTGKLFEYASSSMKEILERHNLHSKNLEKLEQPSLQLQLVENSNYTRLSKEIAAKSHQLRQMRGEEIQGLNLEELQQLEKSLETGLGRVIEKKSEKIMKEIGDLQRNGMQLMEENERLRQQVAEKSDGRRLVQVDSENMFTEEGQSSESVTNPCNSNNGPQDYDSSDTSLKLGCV

Series [2] deals with T1, MdJa2-His. As to the kind of experiment: EMSA; EMSA (LightShift kit): 2.5% glycerol, 5 mM MgCl2, 10 mM EDTA, 50 mM KCl; room temperature, 30 min; pH not stated. Conditions: protein: recombinant, tags: His (pET32a), chain copies: 2, blunt.
Series [3] deals with T1, MdJa2-His. As to the kind of experiment: competition; 50-200x excess vs labeled N3; EMSA (LightShift kit): 2.5% glycerol, 5 mM MgCl2, 10 mM EDTA, 50 mM KCl; room temperature, 30 min; pH not stated. Conditions: protein: recombinant; tags: His (pET32a); chain copies: 2; blunt.

B1: MYB12-mutant probe (printed NYB12-mutant) (dsDNA)
DNA 1: AAATTCAGGAACCATTGCTACAACCAAGCATAACACAGT
DNA 2: ACTGTGTTATGCTTGGTTGTAGCAATGGTTCCTGAATTT
With B1, the binding result with MdJa2-His [1] is given as “no binding”.

B2: MYB12 promoter probe (dsDNA)
DNA 1: AAATTCAGGAACCATTGCTACAATTAAGCATAACACAGT
DNA 2: ACTGTGTTATGCTTAATTGTAGCAATGGTTCCTGAATTT
With B2, the binding result with MdJa2-His [2] (label: biotin (labeled probe)) is listed as “binds”.

B3: ANS promoter probe (dsDNA)
DNA 1: GCAATTAAGTTTGTAAACCAATAATTAACTTAATTTTGAT
DNA 2: ATCAAAATTAAGTTAATTATTGGTTTACAAACTTAATTGC
As for B3, in the series with MdJa2-His [2] (label: biotin (labeled probe)), the binding result is recorded as “binds”.

B4: ANS-mutant probe (dsDNA)
DNA 1: GCAACCAAGTTTGTAAACCAATAATTAACTTAATTTTGAT
DNA 2: ATCAAAATTAAGTTAATTATTGGTTTACAAACTTGGTTGC
For the molecule B4, in the series with MdJa2-His [2], the binding result is listed as “no binding”.

B5: MYB9 promoter probe (dsDNA)
DNA 1: TAAATAGTAATAATATCATTTTTGTACATTCAGATAA
DNA 2: TTATCTGAATGTACAAAAATGATATTATTACTATTTA
Take B5: in the series with MdJa2-His [2] (label: biotin (labeled probe)), the binding result is given as “binds”.

B6: MYB9-mutant probe (dsDNA)
DNA 1: TAAATAGTAATAATATCACCTTTGTACATTCAGATAA
DNA 2: TTATCTGAATGTACAAAGGTGATATTATTACTATTTA
As for B6, in the series with MdJa2-His [3], the binding result is listed as “no binding”.
